B1: hSARM1 (hSARM1 w.t., near-intact, 26ERL...GPT724) (Homo sapiens) (protein)
chain: ERLAVPGPDGGGGTGPWWAAGGRGPREVSPGAGTEVQDALERALPELQQALSALKQAGGARAVGAGLAEVFQLVEEAWLLPAVGREVAQGLCDAIRLDGGLDLLLRLLQAPELETRVQAARLLEQILVAENRDRVARIGLGVILNLAKEREPVELARSVAGILEHMFKHSEETCQRLVAAGGLDAVLYWCRRTDPALLRHCALALGNCALHGGQAVQRRMVEKRAAEWLFPLAFSKEDELLRLHACLAVAVLATNKEVEREVERSGTLALVEPLVASLDPGRFARCLVDASDTSQGRGPDDLQRLVPLLDSNRLEAQCIGAFYLCAEAAIKSLQGKTKVFSDIGAIQSLKRLVSYSTNGTKSALAKRALRLLGEEVPRPILPSVPSWKEAEVQTWLQQIGFSKYCESFREQQVDGDLLLRLTEEELQTDLGMKSGITRKRFFRELTELKTFANYSTCDRSNLADWLGSLDPRFRQYTYGLVSCGLDRSLLHRVSEQQLLEDCGIHLGVHRARILTAAREMLHSPLPCTGGKPSGDTPDVFISYRRNSGSQLASLLKVHLQLHGFSVFIDVEKLEAGKFEDKLIQSVMGARNFVLVLSPGALDKCMQDHDCKDWVHKEIVTALSCGKNIVPIIDGFEWPEPQVLPEDMQAVLTFNGIKWSHEYQEATIEKIIRFLQGRSSRDSSAGSDTSLEGAAPMGPT
B2: zfSARM1 (zebrafish SARM1, zfSARM1 w.t.) (Danio rerio) (protein)
chain: DRLTVPEYVSSRLHNRRTAPDPRAVSPGISTDVQAVLDGSLPALRSAIRTLRSSKDTGDLEETRRAIAETFQLVEEAWVLPTVGRRVAEEICNRIRLDGGLELLLQLMQTPAVEITYESAKLLEQILVSENRDYVARMGLGVILNLTREQEDAQLARSVSGILEHMFKHTEETSAQLITNGALDTILYWCRGTDPTVLRHCAVALSNCAMYGGHRCQRLMIEKQAAEWLFPLAFSKEDELIRFHACLAVAVLAANREMEKEVVKSGTLELVEPFIASLDPDEFARNMLDSADSMQGRTAADLQHLLPLLDGTRLEGKCIAAFYLCVETSIKSRQRNTKIFQEIGAVQSLKRIVMYSSNATVCSLAKRALKMMSEEVPRRILSSVPNWKSGEVQTWLQQIGFSAFSERFQELQVDGDLLLNITEQDLIQDLGMTSGLTRKRFLRDLRVLKTYANYSTCDPNNLADWLADADPRFRQYTYGLVQSGVDRNNIVHITDQQLLTDCHVENGIHRAKILSAARRPSKPCLTDSQPKGPDVFISYRRTTGSQLASLLKVHLQLRGFSVFIDVEKLEAGRFEEKLITSVQRARNFILVLSANALDKCMGDVAMKDWVHKEIVTALNGKKNIVPVTDNFVWPDPTSLPEDMSTILKFNGIKWSHEYQEATIEKILRFLEGCPSQEKPDGAKTDKKEPQKK

Substrate: NC(=O)c1ccc[n+]([C@@H]2O[C@H](COP(=O)([O-])OP(=O)(O)OC[C@H]3O[C@@H](n4cnc5c(N)ncnc54)[C@H](O)[C@@H]3O)[C@@H](O)[C@H]2O)c1
Assay: purified protein

Protein | Km [µM] | kcat [s⁻¹]
B1 | 33 | 3.65
B2 | 28 | 6.85

Source: doi:10.1101/2022.03.02.482641v1
